Data taken from paper PMC4794390.

Substrate: Nc1nc2c(ncn2[C@@H]2O[C@H](CO)[C@@H](O)[C@H]2O)c(=O)[nH]1
Test: purified protein
Format: biochemical, Homo sapiens
[1] = phosphate catalytic site (His257, Asn243, Glu201)

Protein	Km [1]	kcat [1]	kcat/Km [1]	Km (phosphate catalytic site)	kcat (phosphate catalytic site)	kcat/Km (phosphate catalytic site)
purine nucleoside phosphorylase (PNP) (Homo sapiens) (protein) MENGYTYEDYKNTAEWLLSHTKHRPQVAIICGSGLGGLTDKLTQAQIFDYGEIPNFPRSTVPGHAGRLVFGFLNGRACVMMQGRFHMYEGYPLWKVTFPVRVFHLLGVDTLVVTNAAGGLNPKFEVGDIMLIRDHINLPGFSGQNPLRGPNDERFGDRFPAMSDAYDRTMRQRALSTWKQMGEQRELQEGTYVMVAGPSFETVAECRVLQKLGADAVGMSTVPEVIVARHCGLRVFGFSLITNKVIMDYESLEKANHEEVLAAGKQAAQKLEQFVSILMASIPLPDKAS	63 ± 8 µM	8.8 ± 0.5 s⁻¹	140000 M⁻¹ s⁻¹	–	–	–
purine nucleoside phosphorylase (PNP) (Homo sapiens; E258D/L261A) (protein) MENGYTYEDYKNTAEWLLSHTKHRPQVAIICGSGLGGLTDKLTQAQIFDYGEIPNFPRSTVPGHAGRLVFGFLNGRACVMMQGRFHMYEGYPLWKVTFPVRVFHLLGVDTLVVTNAAGGLNPKFEVGDIMLIRDHINLPGFSGQNPLRGPNDERFGDRFPAMSDAYDRTMRQRALSTWKQMGEQRELQEGTYVMVAGPSFETVAECRVLQKLGADAVGMSTVPEVIVARHCGLRVFGFSLITNKVIMDYESLEKANHDEVAAAGKQAAQKLEQFVSILMASIPLPDKAS	–	–	–	73 ± 13 µM	4.2 ± 0.4 s⁻¹	58000 M⁻¹ s⁻¹
